Test system: Escherichia coli TOP10
Assay: shrunken log2 fold change of peptide-encoding DNA abundance (4.5 h post-induction vs induction); higher = less antimicrobial activity (less host growth inhibition)
Conditions: time post-induction: 4.5 h; library: site-saturation at positions 5, 18, 19, 20
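Also: peptides expressed intracellularly from a pBAD plasmid library in pooled LB shake-flask culture, induced with 0.3% L-arabinose, DNA abundance read by NGS, three biological replicates, DESeq2 with apeglm shrinkage.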

Sequence	shrunken log2 fold change
RRIRGRPPRLPRPRPRPIVDPRP	0.0357
RRIRARPPRLPRPRPRPVMQPRP	0.305
RRIRGRPPRLPRPRPRPYRFPRP	0.0893
RRIRFRPPRLPRPRPRPMWTPRP	-0.37
RRIRQRPPRLPRPRPRPLSPPRP	-0.109
RRIRARPPRLPRPRPRPWPEPRP	0.245
RRIRLRPPRLPRPRPRPSELPRP	-0.195
RRIRKRPPRLPRPRPRPLPQPRP	0.729
RRIRYRPPRLPRPRPRPVKHPRP	-0.122
RRIRARPPRLPRPRPRPESVPRP	0.886
RRIRVRPPRLPRPRPRPQHAPRP	-0.154
RRIRARPPRLPRPRPRPFMGPRP	-0.255
RRIRYRPPRLPRPRPRPKRSPRP	-0.113
RRIRQRPPRLPRPRPRPTHHPRP	0.0945
RRIRSRPPRLPRPRPRPNELPRP	-0.295
RRIRQRPPRLPRPRPRPWGDPRP	-0.138
RRIRIRPPRLPRPRPRPDCHPRP	-0.154
RRIRMRPPRLPRPRPRPVQCPRP	-0.0134
RRIRKRPPRLPRPRPRPQQYPRP	0.183
RRIRHRPPRLPRPRPRPILQPRP	-0.152
RRIRVRPPRLPRPRPRPARPPRP	0.486
RRIRHRPPRLPRPRPRPKHYPRP	-0.577
RRIRSRPPRLPRPRPRPTLAPRP	0.542
RRIRPRPPRLPRPRPRPPVYPRP	0.162
RRIRIRPPRLPRPRPRPSMDPRP	-0.353

Sequence	shrunken log2 fold change
RRIRPRPPRLPRPRPRPANPPRP	0.13
RRIRIRPPRLPRPRPRPCNVPRP	-0.449
RRIRKRPPRLPRPRPRPHPMPRP	0.224
RRIRVRPPRLPRPRPRPTDAPRP	0.0111
RRIRHRPPRLPRPRPRPQTVPRP	-0.495
RRIRWRPPRLPRPRPRPHPGPRP	-0.0288
RRIRHRPPRLPRPRPRPDHGPRP	-0.115
RRIRLRPPRLPRPRPRPRYVPRP	-0.265
RRIRMRPPRLPRPRPRPNYNPRP	-0.678
RRIRCRPPRLPRPRPRPMQCPRP	0.0136
RRIRARPPRLPRPRPRPCSNPRP	-0.153
RRIRSRPPRLPRPRPRPGSKPRP	-0.0053
RRIRTRPPRLPRPRPRPNRLPRP	0.0657
RRIRVRPPRLPRPRPRPPQDPRP	0.27
RRIRCRPPRLPRPRPRPYLMPRP	-0.916
RRIRIRPPRLPRPRPRPLKVPRP	-0.29
RRIRPRPPRLPRPRPRPPMPPRP	0.442
RRIRKRPPRLPRPRPRPQDCPRP	-0.104
RRIRLRPPRLPRPRPRPVEDPRP	0.0985
RRIRSRPPRLPRPRPRPIAPPRP	-0.0336
RRIRYRPPRLPRPRPRPKPAPRP	-0.0511
RRIRARPPRLPRPRPRPPQFPRP	0.953
RRIRFRPPRLPRPRPRPYIGPRP	-1.25
RRIRGRPPRLPRPRPRPDINPRP	1.68
RRIRYRPPRLPRPRPRPKLWPRP	0.64

Sequence	shrunken log2 fold change
RRIRTRPPRLPRPRPRPQQKPRP	-0.0118
RRIRARPPRLPRPRPRPDSMPRP	0.02
RRIRMRPPRLPRPRPRPDRHPRP	0.0052
RRIRIRPPRLPRPRPRPFICPRP	-0.304
RRIRLRPPRLPRPRPRPREDPRP	0.327
RRIRRRPPRLPRPRPRPCRKPRP	-0.444
RRIRIRPPRLPRPRPRPNDGPRP	-0.483
RRIRSRPPRLPRPRPRPWPIPRP	0.0295
RRIRWRPPRLPRPRPRPISMPRP	-0.209
RRIRHRPPRLPRPRPRPLKTPRP	0.0116
RRIRVRPPRLPRPRPRPMMSPRP	0.00438
RRIRFRPPRLPRPRPRPPHNPRP	0.0036
RRIRHRPPRLPRPRPRPQGAPRP	-0.171
RRIRLRPPRLPRPRPRPMEYPRP	0.015
RRIRWRPPRLPRPRPRPFRVPRP	-0.0169
RRIRSRPPRLPRPRPRPWGEPRP	0.00882
RRIRCRPPRLPRPRPRPASVPRP	0.176
RRIRLRPPRLPRPRPRPYWYPRP	-0.542
RRIRLRPPRLPRPRPRPHHMPRP	-0.353
RRIRIRPPRLPRPRPRPAECPRP	-0.311
RRIRARPPRLPRPRPRPPEAPRP	0.699
RRIRERPPRLPRPRPRPVDLPRP	-0.103
RRIRPRPPRLPRPRPRPNMHPRP	-0.329
RRIRDRPPRLPRPRPRPDPLPRP	0.64
RRIRIRPPRLPRPRPRPNERPRP	-0.319

— the supplement of paper PMC9112550, “Optimization of the antimicrobial peptide Bac7 by deep mutational scanning” (BMC Biology, 2022)
